Measured values reported in paper PMC7820290 (Nature Communications, 2020).

Legend:
Experiment in all cases: […]; 5 mM HEPES pH 7.5, 80 mM KCl, 20 °C; […]
Details in all cases: both partners purified
[1] = target: T1, SARS-CoV-2 N protein residues 175–419 (SARS-CoV-2, UniProt P0DTC9 175-419)
T1 construct: also called N^175–419

[2] = target: T2, SARS-CoV-2 nucleocapsid (N) protein, full length (419 aa) (SARS-CoV-2, UniProt P0DTC9 1-419)
T2 construct: also called N^1–419; N^FL

[3] = target: T3, SARS-CoV-2 N protein residues 175–364 (SARS-CoV-2, UniProt P0DTC9 175-364)
T3 construct: also called N^175–364

[4] = target: T4, SARS-CoV-2 N protein residues 247–419 (SARS-CoV-2, UniProt P0DTC9 247-419)
T4 construct: also called N^247–419

Measured: binding result

B1: soluble C-terminal domain of SARS-CoV-2 membrane (M) protein (aa 104–222 of 222) fused to GFP (domain or fragment)
chain: ARTRSMWSFNPETNILLNVPLHGTILTRPLLESELVIGAVILRGHLRIAGHHLGRCDIKDLPKEITVATSRTLSYYKLGASQRVAGDSGFAAYSRYRIGNYKLNTDHSSSSDNIALLVQ
notes: also called GFP-M^104–222
binds: all assays above
